Data on one substance can be found in publication PMC7919418 (Genes & Development, 2021).

This data set in a line: SEC-MALS molecular weight / oligomeric state. Format: physicochemical. On the technique in general: SEC sorts molecules by how far they enter the pores of the column.

As to “dual-TQT/V Panx peptides: Panx peptide residues 455–480 with both Ctp binding sites (TLYKNAATQTERRTATRDAGTQVRLE)”, the “oligomeric state / stoichiometry” value is “two Ctp homodimers with two dual-TQT/V Panx peptides”.
